# Where two headings read alike, the source gives them in different places.
# T1: interaction of CpG and HMGB1 (Bos taurus, UniProt P10103)
# T1 construct: from tissue; host or cells: bovine thymus
# T1 sequence (P10103 2-215 limits assumed): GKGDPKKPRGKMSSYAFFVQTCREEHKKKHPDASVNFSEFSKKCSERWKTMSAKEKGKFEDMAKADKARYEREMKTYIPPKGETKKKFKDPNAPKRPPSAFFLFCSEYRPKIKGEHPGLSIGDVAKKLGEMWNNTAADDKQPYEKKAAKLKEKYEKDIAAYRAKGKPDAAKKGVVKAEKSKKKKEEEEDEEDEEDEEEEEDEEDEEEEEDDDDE
# Key:
# AM14 B cells = experiment: AM14 proliferation assay; format: cell-based, mouse; details: for inhibition of DNA immune complex (PL2-3) dependent proliferation of AM14 B cells: thymidine incorporation
# Description: AM14 proliferation assay: Purified AM14 B cells were preincubated with RAGE-Fc or control human IgG1 for 30 min at 37° C., and stimulated with 0.1 μg/ml of PL2-3 for 24 h at 37° C. Cells were then pulsed with [^3H]thymidine for 6 h.
# [1] = test system: CpG2216+thymus HMG1 induced IFN-a release (TLR9 signaling); experiment: Inhibition of HMG1 mediated enhancement of TLR9 signaling, CpG2216 + thymus HMG1 in bone marrow cells; format: cell-based; details: mouse bone marrow cells
# Description: HMGB1+TLR Ligand: Freshly isolated bone marrow cells were stimulated with TLR ligands (TLR3:PolyIC@5 μg/mL; TLR4:LPS@2.5 ng/mL; TLR5:flagellin@0.25 μg/mL; TLR7:polyU@4 μg/mL or R837@5 μg/mL; TLR9:CpG2216@1 μM) with or without presence of thymus HMGB1 (10 μg/mL) for 24 hr. Cytokines in the supernatant were measured by ELISA.
# Inhibition of HMG1 Mediated Enhancement of TLR Signaling: Freshly isolated bone marrow cells were stimulated with TLR9 ligand CpG2216 (0.3 μM) and thymus HMGB1 (10 μg/mL) in the presence of different concentration of the anti-HMGB1 mAb E11 or control human IgG for 24 hr and IFN-a in the supernatant was measured by ELISA. CpG2216, HMGB1 and nonstimulatory DNA were used alone or in combination as controls for the assay.
# [2] = target: T1, interaction of CpG and HMGB1; experiment: CpG ELISA, HMGB1 binding to CpG
# Description: CpG ELISA: Proteins or peptides were diluted in PBS to the concentration of 5 μg/ml and coated onto plates at 4° C. o/n. Plates were blocked with 4% dry milk in PBS. Biotin labeled CpG-A alone or in complex with HMGB1 were incubated in the plates at 37° C. for 1 hr. and detected with HRP labeled strep-avidin.
# mouse macrophages = experiment: TNF-a induction in mouse macrophages; format: cell-based
# Description: TNF-a Induction: To examine mRNA levels macrophages were derived from mouse bone marrow using M-CSF. Macrophages were then stimulated by LPS, E. coli produced recombinant HMGB1 or HMGB1 purified from bovine thymus for indicated length of time and mRNA is measured by Taqman. To examine protein levels thioglycant activated mouse peritoneal macrophages were stimulated with 10 μg/mL of HMGB1 purified from bovine thymus or recombinant HMGB1 generated from E. coli for 24 hr. Cytokines in the supernatant were measured by ELISA.
# [3] = test system: HMG1 stimulated cytokine gene expression in mouse macrophages; experiment: Taqman analysis of mouse macrophages (mMØ) stimulated with HMG1; format: cell-based; details: rHMG1
# Description: Taqman Analysis of Mouse Macrophages (mMØ) Stimulated with HMG1: Mouse bone marrow was harvested by rinsing the femurs of normal C57BL/6 mice. The isolated bone marrow cells were then cultured in Dulbecco's modified Eagle's medium (DMEM) supplemented with 10% fetal bovine serum (FBS) and 50 ng/ml M-CSF for 24 h, nonadherent cells were collected and grown for 6 days in complete DMEM supplemented with 10% FBS and 50 ng/ml M-CSF in T-75 flasks (1×10^7 cells/15 ml/flask). On day 6, adherent cells were harvested and reseeded with 5 ng/ml MCSF in α-MEM containing 10% FBS in 96-well plates (1×10^5 cells/200 μl/well) overnight.
# The culture medium was replaced with α-MEM and incubated for 2 hours before stimulation to starve cells. HMGB1 (recombinant CBP-HMGB1 fusion protein generated from E. coli at 10 μg/ml), mouse-RAGE-Fc or human-RAGE-Fc fusion protein were pre-mixed with various blocking reagents at 100 μg/ml in α-MEM for 20 min at RT, then 100 μl of the mixtures was added to the cells and incubated at 37° C. for 2 hours. The supernatant was then removed, and the RNA was extracted using Ambion's MagMAX™-96 Total RNA Isolation Kit. All of the recovered RNA were used in a reverse transcriptase (RT) reaction with SuperScript™ III and oligo(dT) primer (Invitrogen) for synthesis of cDNA. 1 μl or 2 μl of the resulting cDNA was used for real time quantitative PCR analysis (TaqMan) using ABI Prism 7700 or 7000.
molecule,measurement,setting,value
"A-box: synthesized HMGB1 A-box peptide (SEQ ID NO: 108), a known HMGB1 antagonist (peptide, listed as Homo sapiens) PRGKMSSYAFFVQTCREEHKKKHPDASVNFSEFSKKCSERWKTMSAKEKGKFEDMAKADKARYEREMKTYIPPKGET","effect on TLR2, TLR4 ligand induced proliferation or BCR mediated B cell activation",AM14 B cells,had no effect
same,inhibition of DNA immune complex (PL2-3) dependent proliferation of AM14 B cells,AM14 B cells; listed as A box antagonist,reduced proliferation
same,inhibition of DNA immune complex (PL2-3) dependent proliferation of AM14 B cells,AM14 B cells; listed as HMGB A box,markedly inhibited PL2-3-dependent proliferation of AM14 B cells
same,inhibition of IFN-a release induced by CpG + thymus HMG1,[1],inhibit IFN-a release
same,inhibition of IFN-a release induced by CpG + thymus HMG1,[1]; listed as HMGB1 A-box,did not show inhibition in this assay
same,inhibition of the interaction of CpG and HMGB1,[2],inhibit the interaction of CpG and HMGB1
same,inhibition of the interaction of CpG and HMGB1,[2]; listed as A box HMGB1,prevented the binding of HMGB1 to CpG DNA
"rHMG1: E. coli produced recombinant HMG1 (CBP fusion protein) (protein, left off: small tags and cut ends) MGKGDPKKPRGKMSSYAFFVQTCREEHKKKHPDASVNFSEFSKKCSERWKTMSAKEKGKFEDMAKADKARYEREMKTYIPPKGETKKKFKDPNAPKRPPSAFFLFCSEYRPKIKGEHPGLSIGDVAKKLGEMWNNTAADDKQPYEKKAAKLKEKYEKDIAAYRAKGKPDAAKKGVVKAEKSKKKKEEEEDEEDEEDEEEEEDEEDEDEEEDDDDE",induction of TNF-a mRNA levels,mouse macrophages; 2 hours,~43 fold
same,increase in TNF-a protein levels,"mouse macrophages; 24 hours, supernatant",~10 fold
"mouse RAGE-Fc fusion protein: mouse RAGE-Fc fusion protein (protein, left off: a dimerising Fc or GST) QNITARIGEPLVLSCKGAPKKPPQQLEWKLNTGRTEAWKVLSPQGGPWDSVARILPNGSLLLPATGIVDEGTFRCRATNRRGKEVKSNYRVRVYQIPGKPEIVDPASELTASVPNKVGTCVSEGSYPAGTLSWHLDGKLLIPDGKETLVKEETRRHPETGLFTLRSELTVIPTQGGTHPTFSCSFSLGLPRRRPLNTAPIQLRVREPGPPEGIQLLVEPEGGIVAPGGTVTLTCAISAQPPPQVHWIKDGAPLPLAPSPVLLLPEVGHEDEGTYSCVATHPSHGPQESPPVSIRVTETGDEGPAEGSVGESGLGTLALA",inhibition of HMG1-induced IL-1β gene expression,[3],robustly inhibited
same,inhibition of HMG1-induced TNF-a gene expression,[3],robustly inhibited

# From patent US20080311122A1, “Antagonists of Hmgb1 and/or Rage and Methods of Use Thereof” (Medimmune, LLC, priority 2005, published 2008)
